According to patent publication US20250368745A1 (published 2025):

T1: human IL-18BP (human, UniProt O95998 31-194)
T1 construct: UniProt printed as 095998; also called hIL-18BP
T1 sequence: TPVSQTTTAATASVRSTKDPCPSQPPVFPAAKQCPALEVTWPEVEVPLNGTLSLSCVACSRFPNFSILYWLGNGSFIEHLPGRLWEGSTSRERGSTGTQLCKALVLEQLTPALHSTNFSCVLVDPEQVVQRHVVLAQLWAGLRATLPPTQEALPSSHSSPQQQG

T2: cynomolgus IL-18BP (cynomolgus monkey)
T2 construct: also called cyno IL-18BP; cyIL-18BP
T2 chain: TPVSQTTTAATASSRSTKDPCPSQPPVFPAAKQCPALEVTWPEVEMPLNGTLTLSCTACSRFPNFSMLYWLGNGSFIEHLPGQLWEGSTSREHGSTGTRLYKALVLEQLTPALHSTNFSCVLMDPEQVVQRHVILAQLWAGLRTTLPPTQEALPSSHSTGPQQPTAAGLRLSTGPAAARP


Tests used:
human IL-18BP = target: T1, human IL-18BP; experiment: BLI, apparent KD
cynomolgus IL-18BP = target: T2, cynomolgus IL-18BP; experiment: BLI, apparent KD

Row | Binder | Kd (human IL-18BP) | Kd (cynomolgus IL-18BP)
1 | SA301a HC-V100aT (antibody, name in Kabat numbering, V domains shown, IgG1 kappa) VH: QVQLQESGPGLVKPSQTLSLTCTVSGYSITSDYNSHWIRQPPGKGLEWIGYIHYSGSTNYNPSLKSRVTISRDTSKNQFSLKLSSVTAADTAVYYCARNYGSIYTNYFDYWGQGTLVTVSS VL: EIVLTQSPATLSLSPGERATLSCSASSSVSYMYWYQQKPGQAPRPLIYRTSNLASGIPARFSGSGSGTDFTLTISSLEPEDFAVYYCQQYHSYPTFGGGTKVEIK | 0.27 nM | 0.06 nM
2 | SA301a HC-V100aG (antibody, name in Kabat numbering, V domains shown, IgG1 kappa) VH: QVQLQESGPGLVKPSQTLSLTCTVSGYSITSDYNSHWIRQPPGKGLEWIGYIHYSGSTNYNPSLKSRVTISRDTSKNQFSLKLSSVTAADTAVYYCARNYGSIYGNYFDYWGQGTLVTVSS VL: EIVLTQSPATLSLSPGERATLSCSASSSVSYMYWYQQKPGQAPRPLIYRTSNLASGIPARFSGSGSGTDFTLTISSLEPEDFAVYYCQQYHSYPTFGGGTKVEIK | 0.55 nM | 0.92 nM
3 | SA301a HC-V100aL (antibody, name in Kabat numbering, V domains shown, IgG1 kappa) VH: QVQLQESGPGLVKPSQTLSLTCTVSGYSITSDYNSHWIRQPPGKGLEWIGYIHYSGSTNYNPSLKSRVTISRDTSKNQFSLKLSSVTAADTAVYYCARNYGSIYLNYFDYWGQGTLVTVSS VL: EIVLTQSPATLSLSPGERATLSCSASSSVSYMYWYQQKPGQAPRPLIYRTSNLASGIPARFSGSGSGTDFTLTISSLEPEDFAVYYCQQYHSYPTFGGGTKVEIK | 2.54 nM | 0.81 nM
4 | SA301a HC-N100bS (antibody, name in Kabat numbering, V domains shown, IgG1 kappa) VH: QVQLQESGPGLVKPSQTLSLTCTVSGYSITSDYNSHWIRQPPGKGLEWIGYIHYSGSTNYNPSLKSRVTISRDTSKNQFSLKLSSVTAADTAVYYCARNYGSIYVSYFDYWGQGTLVTVSS VL: EIVLTQSPATLSLSPGERATLSCSASSSVSYMYWYQQKPGQAPRPLIYRTSNLASGIPARFSGSGSGTDFTLTISSLEPEDFAVYYCQQYHSYPTFGGGTKVEIK | 0.49 nM | 0.09 nM
5 | SA301a HC-V100aP (antibody, name in Kabat numbering, V domains shown, IgG1 kappa) VH: QVQLQESGPGLVKPSQTLSLTCTVSGYSITSDYNSHWIRQPPGKGLEWIGYIHYSGSTNYNPSLKSRVTISRDTSKNQFSLKLSSVTAADTAVYYCARNYGSIYPNYFDYWGQGTLVTVSS VL: EIVLTQSPATLSLSPGERATLSCSASSSVSYMYWYQQKPGQAPRPLIYRTSNLASGIPARFSGSGSGTDFTLTISSLEPEDFAVYYCQQYHSYPTFGGGTKVEIK | 0.49 nM | 0.15 nM
6 | SA301a HC-V100aM (antibody, name in Kabat numbering, V domains shown, IgG1 kappa) VH: QVQLQESGPGLVKPSQTLSLTCTVSGYSITSDYNSHWIRQPPGKGLEWIGYIHYSGSTNYNPSLKSRVTISRDTSKNQFSLKLSSVTAADTAVYYCARNYGSIYMNYFDYWGQGTLVTVSS VL: EIVLTQSPATLSLSPGERATLSCSASSSVSYMYWYQQKPGQAPRPLIYRTSNLASGIPARFSGSGSGTDFTLTISSLEPEDFAVYYCQQYHSYPTFGGGTKVEIK | 0.8 nM | 0.22 nM
7 | SA301a HC-I99Q (antibody, name in Kabat numbering, V domains shown, IgG1 kappa) VH: QVQLQESGPGLVKPSQTLSLTCTVSGYSITSDYNSHWIRQPPGKGLEWIGYIHYSGSTNYNPSLKSRVTISRDTSKNQFSLKLSSVTAADTAVYYCARNYGSQYVNYFDYWGQGTLVTVSS VL: EIVLTQSPATLSLSPGERATLSCSASSSVSYMYWYQQKPGQAPRPLIYRTSNLASGIPARFSGSGSGTDFTLTISSLEPEDFAVYYCQQYHSYPTFGGGTKVEIK | 0.25 nM | 0.44 nM
8 | SA301a HC-N100bH (antibody, name in Kabat numbering, V domains shown, IgG1 kappa) VH: QVQLQESGPGLVKPSQTLSLTCTVSGYSITSDYNSHWIRQPPGKGLEWIGYIHYSGSTNYNPSLKSRVTISRDTSKNQFSLKLSSVTAADTAVYYCARNYGSIYVHYFDYWGQGTLVTVSS VL: EIVLTQSPATLSLSPGERATLSCSASSSVSYMYWYQQKPGQAPRPLIYRTSNLASGIPARFSGSGSGTDFTLTISSLEPEDFAVYYCQQYHSYPTFGGGTKVEIK | 0.69 nM | 1.03 nM
9 | SA301a HC-N100bV (antibody, name in Kabat numbering, V domains shown, IgG1 kappa) VH: QVQLQESGPGLVKPSQTLSLTCTVSGYSITSDYNSHWIRQPPGKGLEWIGYIHYSGSTNYNPSLKSRVTISRDTSKNQFSLKLSSVTAADTAVYYCARNYGSIYVVYFDYWGQGTLVTVSS VL: EIVLTQSPATLSLSPGERATLSCSASSSVSYMYWYQQKPGQAPRPLIYRTSNLASGIPARFSGSGSGTDFTLTISSLEPEDFAVYYCQQYHSYPTFGGGTKVEIK | 2.16 nM | 1.16 nM
10 | SA301a HC-I99S (antibody, name in Kabat numbering, V domains shown, IgG1 kappa) VH: QVQLQESGPGLVKPSQTLSLTCTVSGYSITSDYNSHWIRQPPGKGLEWIGYIHYSGSTNYNPSLKSRVTISRDTSKNQFSLKLSSVTAADTAVYYCARNYGSSYVNYFDYWGQGTLVTVSS VL: EIVLTQSPATLSLSPGERATLSCSASSSVSYMYWYQQKPGQAPRPLIYRTSNLASGIPARFSGSGSGTDFTLTISSLEPEDFAVYYCQQYHSYPTFGGGTKVEIK | 0.56 nM | 0.53 nM
11 | SA301a HC-I99F (antibody, name in Kabat numbering, V domains shown, IgG1 kappa) VH: QVQLQESGPGLVKPSQTLSLTCTVSGYSITSDYNSHWIRQPPGKGLEWIGYIHYSGSTNYNPSLKSRVTISRDTSKNQFSLKLSSVTAADTAVYYCARNYGSFYVNYFDYWGQGTLVTVSS VL: EIVLTQSPATLSLSPGERATLSCSASSSVSYMYWYQQKPGQAPRPLIYRTSNLASGIPARFSGSGSGTDFTLTISSLEPEDFAVYYCQQYHSYPTFGGGTKVEIK | 0.64 nM | 0.97 nM
12 | SA301a HC-I99V (antibody, name in Kabat numbering, V domains shown, IgG1 kappa) VH: QVQLQESGPGLVKPSQTLSLTCTVSGYSITSDYNSHWIRQPPGKGLEWIGYIHYSGSTNYNPSLKSRVTISRDTSKNQFSLKLSSVTAADTAVYYCARNYGSVYVNYFDYWGQGTLVTVSS VL: EIVLTQSPATLSLSPGERATLSCSASSSVSYMYWYQQKPGQAPRPLIYRTSNLASGIPARFSGSGSGTDFTLTISSLEPEDFAVYYCQQYHSYPTFGGGTKVEIK | 0.05 nM | 0.33 nM
13 | SA301a HC-N100bD (antibody, name in Kabat numbering, V domains shown, IgG1 kappa) VH: QVQLQESGPGLVKPSQTLSLTCTVSGYSITSDYNSHWIRQPPGKGLEWIGYIHYSGSTNYNPSLKSRVTISRDTSKNQFSLKLSSVTAADTAVYYCARNYGSIYVDYFDYWGQGTLVTVSS VL: EIVLTQSPATLSLSPGERATLSCSASSSVSYMYWYQQKPGQAPRPLIYRTSNLASGIPARFSGSGSGTDFTLTISSLEPEDFAVYYCQQYHSYPTFGGGTKVEIK | 2.3 nM | 0.96 nM
14 | SA301a HC-I99G (antibody, name in Kabat numbering, V domains shown, IgG1 kappa) VH: QVQLQESGPGLVKPSQTLSLTCTVSGYSITSDYNSHWIRQPPGKGLEWIGYIHYSGSTNYNPSLKSRVTISRDTSKNQFSLKLSSVTAADTAVYYCARNYGSGYVNYFDYWGQGTLVTVSS VL: EIVLTQSPATLSLSPGERATLSCSASSSVSYMYWYQQKPGQAPRPLIYRTSNLASGIPARFSGSGSGTDFTLTISSLEPEDFAVYYCQQYHSYPTFGGGTKVEIK | 1.04 nM | 0.67 nM
15 | SA301a HC-V100aQ (antibody, name in Kabat numbering, V domains shown, IgG1 kappa) VH: QVQLQESGPGLVKPSQTLSLTCTVSGYSITSDYNSHWIRQPPGKGLEWIGYIHYSGSTNYNPSLKSRVTISRDTSKNQFSLKLSSVTAADTAVYYCARNYGSIYQNYFDYWGQGTLVTVSS VL: EIVLTQSPATLSLSPGERATLSCSASSSVSYMYWYQQKPGQAPRPLIYRTSNLASGIPARFSGSGSGTDFTLTISSLEPEDFAVYYCQQYHSYPTFGGGTKVEIK | 0.45 nM | 0.1 nM
16 | SA301a HC-I99H (antibody, name in Kabat numbering, V domains shown, IgG1 kappa) VH: QVQLQESGPGLVKPSQTLSLTCTVSGYSITSDYNSHWIRQPPGKGLEWIGYIHYSGSTNYNPSLKSRVTISRDTSKNQFSLKLSSVTAADTAVYYCARNYGSHYVNYFDYWGQGTLVTVSS VL: EIVLTQSPATLSLSPGERATLSCSASSSVSYMYWYQQKPGQAPRPLIYRTSNLASGIPARFSGSGSGTDFTLTISSLEPEDFAVYYCQQYHSYPTFGGGTKVEIK | 0.61 nM | 0.83 nM
17 | SA301a HC-I99N (antibody, name in Kabat numbering, V domains shown, IgG1 kappa) VH: QVQLQESGPGLVKPSQTLSLTCTVSGYSITSDYNSHWIRQPPGKGLEWIGYIHYSGSTNYNPSLKSRVTISRDTSKNQFSLKLSSVTAADTAVYYCARNYGSNYVNYFDYWGQGTLVTVSS VL: EIVLTQSPATLSLSPGERATLSCSASSSVSYMYWYQQKPGQAPRPLIYRTSNLASGIPARFSGSGSGTDFTLTISSLEPEDFAVYYCQQYHSYPTFGGGTKVEIK | 0.55 nM | 0.66 nM
18 | SA301a HC-I99R (antibody, name in Kabat numbering, V domains shown, IgG1 kappa) VH: QVQLQESGPGLVKPSQTLSLTCTVSGYSITSDYNSHWIRQPPGKGLEWIGYIHYSGSTNYNPSLKSRVTISRDTSKNQFSLKLSSVTAADTAVYYCARNYGSRYVNYFDYWGQGTLVTVSS VL: EIVLTQSPATLSLSPGERATLSCSASSSVSYMYWYQQKPGQAPRPLIYRTSNLASGIPARFSGSGSGTDFTLTISSLEPEDFAVYYCQQYHSYPTFGGGTKVEIK | 0.46 nM | 0.69 nM
19 | SA301a HC-V100aE (antibody, name in Kabat numbering, V domains shown, IgG1 kappa) VH: QVQLQESGPGLVKPSQTLSLTCTVSGYSITSDYNSHWIRQPPGKGLEWIGYIHYSGSTNYNPSLKSRVTISRDTSKNQFSLKLSSVTAADTAVYYCARNYGSIYENYFDYWGQGTLVTVSS VL: EIVLTQSPATLSLSPGERATLSCSASSSVSYMYWYQQKPGQAPRPLIYRTSNLASGIPARFSGSGSGTDFTLTISSLEPEDFAVYYCQQYHSYPTFGGGTKVEIK | 0.51 nM | 0.22 nM
20 | SA301a HC-I99M (antibody, name in Kabat numbering, V domains shown, IgG1 kappa) VH: QVQLQESGPGLVKPSQTLSLTCTVSGYSITSDYNSHWIRQPPGKGLEWIGYIHYSGSTNYNPSLKSRVTISRDTSKNQFSLKLSSVTAADTAVYYCARNYGSMYVNYFDYWGQGTLVTVSS VL: EIVLTQSPATLSLSPGERATLSCSASSSVSYMYWYQQKPGQAPRPLIYRTSNLASGIPARFSGSGSGTDFTLTISSLEPEDFAVYYCQQYHSYPTFGGGTKVEIK | 0.21 nM | 0.37 nM
